Data taken from US20200055919A1 (ACCELERON PHARMA, published 2020).
Residue numbers refer to the chain shown, from its start. Names and notes keep the numbering of the source.

Experiments:
[1] = molecular target: T1, activin B (UniProt P09529 293-407); test: SPR (Biacore), Fc fusion captured by anti-Fc antibody, ligand injected, 37 C
T1 sequence (looked up): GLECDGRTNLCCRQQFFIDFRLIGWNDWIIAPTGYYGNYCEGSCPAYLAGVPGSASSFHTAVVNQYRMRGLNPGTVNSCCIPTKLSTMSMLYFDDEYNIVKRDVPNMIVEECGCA
Description: (§1) A Biacore™-based binding assay was used to compare the ligand binding kinetics of an ActRIIB-Fc:ActRIIB(L79E)-Fc heterodimer with those of unmodified ActRIIB-Fc homodimer. Fusion proteins were captured onto the system using an anti-Fc antibody. Ligands were then injected and allowed to flow over the captured receptor protein at 37° C. Results are summarized in the table below, in which ligand off-rates (kd) most indicative of effective ligand traps are denoted in bold.

[2] = molecular target: T2, BMP9 (UniProt Q9UK05 320-429); test: as above
T2 sequence (looked up): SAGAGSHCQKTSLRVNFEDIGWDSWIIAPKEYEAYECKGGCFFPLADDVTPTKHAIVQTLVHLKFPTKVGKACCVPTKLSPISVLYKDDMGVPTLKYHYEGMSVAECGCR
Description: as §1

[3] = molecular target: T3, BMP6 (UniProt P22004 382-513, limits assumed); test: as above
T3 sequence (looked up): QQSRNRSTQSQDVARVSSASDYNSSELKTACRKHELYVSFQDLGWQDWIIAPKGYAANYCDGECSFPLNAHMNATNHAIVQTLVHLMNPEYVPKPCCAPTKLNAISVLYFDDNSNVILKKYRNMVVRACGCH
Description: as §1

[4] = molecular target: T4, GDF11 (UniProt O95390 299-407); test: as above
T4 construct: also called BMP11
T4 sequence (looked up): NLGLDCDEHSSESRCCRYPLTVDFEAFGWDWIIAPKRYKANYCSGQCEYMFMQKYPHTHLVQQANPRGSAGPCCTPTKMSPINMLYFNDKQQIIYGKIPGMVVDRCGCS
Description: as §1

[5] = molecular target: T5, activin A (UniProt P08476 311-426); test: as above
T5 sequence (looked up): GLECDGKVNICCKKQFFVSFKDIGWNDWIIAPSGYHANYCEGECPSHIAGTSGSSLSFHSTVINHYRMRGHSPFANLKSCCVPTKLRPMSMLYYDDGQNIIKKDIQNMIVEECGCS
Description: as §1

[6] = molecular target: T6, GDF8 (UniProt O14793 267-375); test: as above
T6 construct: also called myostatin
T6 sequence (looked up): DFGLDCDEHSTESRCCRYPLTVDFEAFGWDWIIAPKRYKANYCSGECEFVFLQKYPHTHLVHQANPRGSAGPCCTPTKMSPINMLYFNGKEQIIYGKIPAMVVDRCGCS
Description: as §1

[7] = molecular target: T7, GDF3 (UniProt Q9NR23 251-364); test: as above
T7 sequence (looked up): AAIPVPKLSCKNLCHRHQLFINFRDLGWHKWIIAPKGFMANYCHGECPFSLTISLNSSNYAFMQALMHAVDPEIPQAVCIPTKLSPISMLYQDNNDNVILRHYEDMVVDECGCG
Description: as §1

[8] = molecular target: T8, BMP10 (UniProt O95393 317-424); test: as above
T8 sequence (looked up): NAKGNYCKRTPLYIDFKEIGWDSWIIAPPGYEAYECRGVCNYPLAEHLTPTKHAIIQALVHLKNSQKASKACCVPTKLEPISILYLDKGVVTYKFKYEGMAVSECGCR
Description: as §1

[9] = molecular target: T5, activin A; test: SPR (Biacore), 37 C
Description: as §1

[10] = molecular target: T8, BMP10; test: SPR (Biacore), 37 C
Description: as §1

B1: ActRIIB-Fc:ActRIIB(L79E)-Fc heterodimer (Fc fusion)
chain 1: GRGEAETRECIYYNANWELERTNQSGLERCEGEQDKRLHCYASWRNSSGTIELVKKGCWEDDFNCYDRQECVATEENPQVYFCCCEGNFCNERFTHLPEAGGPEVTYEPPPTAPT
chain 2: B1 chain 1 with E60L
notes: also called ActRIIB-Fc:ActRIIB(L79E)-Fc heteromer; not shown: linker and engineered G1Fc; linker and complementary engineered G1Fc
- Kd [1]: 0.025 nM
- koff [1]: 0.00021 s⁻¹
- kon [1]: 8.3e+06 M⁻¹ s⁻¹
- Kd [2]: > 2.8 nM
- Kd [3]: 0.056 nM
- koff [3]: 0.018 s⁻¹
- kon [3]: 3.3e+08 M⁻¹ s⁻¹
- Kd [4]: 0.009 nM
- koff [4]: 0.00036 s⁻¹
- kon [4]: 4e+07 M⁻¹ s⁻¹
- Kd [5]: 0.17 nM
- koff [5]: 0.0015 s⁻¹
- kon [5]: 8.8e+06 M⁻¹ s⁻¹
- Kd [6]: 0.15 nM
- koff [6]: 0.0005 s⁻¹
- kon [6]: 3.4e+06 M⁻¹ s⁻¹
- Kd [7]: 10 nM
- koff [7]: 0.0059 s⁻¹
- kon [7]: 580000 M⁻¹ s⁻¹
- Kd [8]: 0.042 nM
- koff [8]: 0.002 s⁻¹
- kon [8]: 4.8e+07 M⁻¹ s⁻¹
- fold faster off-rate compared to ActRIIB-Fc homodimer [9]: ~10 fold
- fold faster off-rate compared to ActRIIB-Fc homodimer [10]: ~10 fold
